Experimental data reported in patent US6528098B2, “Preparation of a therapeutic composition” (Advanced Viral Research Corp., priority 1996, dated 2003).
No end group written: not given here.

How the values were obtained:
[1] = biological target: T1, recombinant N-glycosidase F (Elizabethkingia miricola, UniProt P21163); assay: Treatment of Product R with N-glycosidase F, SDS-PAGE on a 16% gel; assay type: physicochemical; set-up: key: “−” represents no substantial alteration of the stainable bands; “+” represents substantial alteration of the stainable bands; details: 37° C., 4 hours
T1 construct: purchased Boehringer Mannheim, USA
T1 sequence (P21163 41-354): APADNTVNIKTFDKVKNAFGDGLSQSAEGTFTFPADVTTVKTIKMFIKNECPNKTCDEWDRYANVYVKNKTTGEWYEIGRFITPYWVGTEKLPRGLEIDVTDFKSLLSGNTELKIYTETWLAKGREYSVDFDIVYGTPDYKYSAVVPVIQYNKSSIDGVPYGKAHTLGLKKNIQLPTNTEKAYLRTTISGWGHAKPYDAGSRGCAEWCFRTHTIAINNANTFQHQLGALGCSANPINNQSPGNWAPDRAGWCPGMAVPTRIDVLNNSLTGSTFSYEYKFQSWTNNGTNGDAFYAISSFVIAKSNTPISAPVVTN
Description: (§1) The biochemical properties of the peptides: Some biochemical properties of the silverstainable peptide components of Product R are analyzed using various catabolic enzymes, as described below:
The treatment with N-glycosidase F (Boehringer Mannheim, USA): N-glycosidase F cleaves all types of asparagine bound N-glycans provided that the amino group and the carboxyl group are present in a peptide linkage and the oligosaccharide has the minimum length of the chitobiose core unit. A Product R sample is incubated in a reaction buffer containing 0.4X Dulbecco's PBS (where 1X PBS contains 1.47 mM KH2 PO4, 2.67 mM KCl, 138 mM NaCl and 8.1 mM Na2 PO4 7H2O), 0.1% SDS, 0.5% NP40 and 50 units/mil of recombinant N-glycosidase F at 37° C. for 4 hours and subject to SDS-PAGE on a 16% gel. […] The resistance to N-glycosidase F indicates the lack of asparagine bound N-glycan, which is commonly observed in glycoproteins.
(§2) A summary of the above described treatments by catabolic enzymes is provided in the following TABLE III, and the results of the treatment are shown in FIG. 5, wherein “−” represents no substantial alteration of the stainable bands and “+” represents substantial alteration of the stainable bands.

[2] = system: Calf thymus alkaline phosphatase (CIAP); assay: Treatment of Product R with alkaline phosphatase, SDS-PAGE on a 16% gel; assay type: physicochemical; set-up: key to Sensitivity of the Peptide Components of Product R (SDS-PAGE): Alkaline Phosphatase (200 units/ml): “−” represents no substantial alteration of the stainable bands; “+” represents substantial alteration of the stainable bands; details: 200 units/ml CIAP, 37° C., about one hour
Description: as §1
The treatment with alkaline phosphatase (Life Technologies, USA): Calf thymus alkaline phosphatase (CIAP) is a phosphomonoesterase that hydrolyses 5′-phosphate groups from DNA, RNA and nucleotides. A Product R sample is incubated in a reaction buffer provided by the manufacturer of the enzyme and 200 units/ml CIAP at 37° C. for about one hour and subjected to SDS-PAGE on a 16% gel.
as §2

| Sequence | Sensitivity of the Peptide Components of Product R (SDS-PAGE): N-glycosidase F (50 units/ml) [1] | Sensitivity of the Peptide Components of Product R (SDS-PAGE): Alkaline Phosphatase (200 units/ml) [2] | change of band intensity / hydrolysis by alkaline phosphatase [2] |
| --- | --- | --- | --- |
| GEIPDAGGRIVDYYVGFSDSV (not fully specified (residue 18)) [Peptide-B, 21-amino acid peptide linked at serine 18 through a diphosphodiester group to the 3′-end of an adenylyl (3′-5′) adenosine moiety] | − | − | resistance |
| KVLPVPQKAVPYPQRDMPIQAFLLYQEPVLG [Peptide-A, 31-amino-acid long peptide derived from bovine beta-casein, constituent of Product R] | − | − |  |
